Key:
BsoBI D246A [1] = biological target: T1, BsoBI D246A (UniProt P70985 P70985:1-323, D246A); assay: filter; 4 mM CaCl2; ±40; conditions: chain copies: 2 inferred; label: 33P 5' end
T1 sequence: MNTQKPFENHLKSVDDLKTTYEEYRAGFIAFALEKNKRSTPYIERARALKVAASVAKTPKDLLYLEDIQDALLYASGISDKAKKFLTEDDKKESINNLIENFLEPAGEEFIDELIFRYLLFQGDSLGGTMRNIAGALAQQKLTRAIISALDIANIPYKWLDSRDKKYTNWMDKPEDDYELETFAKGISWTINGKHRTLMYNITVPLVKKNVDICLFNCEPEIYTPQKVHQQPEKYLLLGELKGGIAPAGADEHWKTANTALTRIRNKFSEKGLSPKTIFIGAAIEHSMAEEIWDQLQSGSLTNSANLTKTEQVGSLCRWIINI
Experimental: (§1) The binding condition was in 10 mM Tris-HCl, pH 7.5, 100 mM NaCl, 50 mg/ml BSA, 4 mM CaCl₂ in […] volume. The labeled DNA substrates were diluted to a final scintillation count of 1000-5000 cpm and varying amount of BsoBI or each variant was added. Following incubation at room temperature for 10 min, the bound complex was loaded onto Micropure EZ column (Millipore Corporation, Bedford, Mass.) and spun at 16K g for 1 min. Protein and protein:DNA complexes are bound to the membrane in the Micropure EZ column and only the free unbound DNA is in the flow-through fraction. 180 μl of the flow-through liquid was immediately transferred to scintillation counting vials filled with 1.5 ml OPTI-FLUOR for aqueous samples (Packard, Meriden, Conn.). The radioactivity count from the sample without BsoBI is F₀, and the radioactivity count from sample with BsoBI or each variant is F. The apparent Kd value is calculated from F/F₀ and the BsoBI concentration [E] according to equation [1]. F/F₀=a [Kd/([E]+Kd)]+b a and b are equation fitting parameters, where b is the non-specific flow-through, and a is the maximum change amplitude.
(§2) DNA binding properties of BsoBI endonuclease and variants: To obtain reproducible BsoBI:DNA binding data, a filter binding assay utilizing a microcentrifuge filter was developed. […]

BsoBI D246R [2] = biological target: T2, BsoBI D246R (UniProt P70985 P70985:1-323, D246R); assay: filter; 4 mM CaCl2; ±20; conditions: chain copies: 2 inferred; label: 33P 5' end
T2 sequence: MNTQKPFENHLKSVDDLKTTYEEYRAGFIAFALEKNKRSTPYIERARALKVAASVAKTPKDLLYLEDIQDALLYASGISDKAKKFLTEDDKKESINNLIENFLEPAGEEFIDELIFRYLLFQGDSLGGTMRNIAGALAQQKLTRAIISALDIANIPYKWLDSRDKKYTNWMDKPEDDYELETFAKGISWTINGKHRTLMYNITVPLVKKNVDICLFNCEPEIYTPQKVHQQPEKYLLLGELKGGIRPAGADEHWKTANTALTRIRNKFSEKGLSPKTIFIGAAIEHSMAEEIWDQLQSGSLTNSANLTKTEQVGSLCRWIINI
Experimental: as §1, §2

BsoBI D246Y [3] = biological target: T3, BsoBI D246Y (UniProt P70985 P70985:1-323, D246Y); assay: filter; 4 mM CaCl2; ±16; conditions: chain copies: 2 inferred; label: 33P 5' end
T3 sequence: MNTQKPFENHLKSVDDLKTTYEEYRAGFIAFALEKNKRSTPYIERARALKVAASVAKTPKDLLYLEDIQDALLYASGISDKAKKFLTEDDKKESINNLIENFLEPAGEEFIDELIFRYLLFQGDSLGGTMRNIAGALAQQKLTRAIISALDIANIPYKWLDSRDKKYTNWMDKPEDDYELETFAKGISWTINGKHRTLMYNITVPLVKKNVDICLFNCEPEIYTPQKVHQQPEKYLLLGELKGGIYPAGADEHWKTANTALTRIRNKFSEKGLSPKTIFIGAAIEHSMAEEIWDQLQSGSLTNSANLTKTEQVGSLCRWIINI
Experimental: as §1, §2

BsoBI D246E [4] = biological target: T4, BsoBI D246E (UniProt P70985 P70985:1-323, D246E); assay: filter; 4 mM CaCl2; ±20000; conditions: chain copies: 2 inferred; label: 33P 5' end
T4 sequence: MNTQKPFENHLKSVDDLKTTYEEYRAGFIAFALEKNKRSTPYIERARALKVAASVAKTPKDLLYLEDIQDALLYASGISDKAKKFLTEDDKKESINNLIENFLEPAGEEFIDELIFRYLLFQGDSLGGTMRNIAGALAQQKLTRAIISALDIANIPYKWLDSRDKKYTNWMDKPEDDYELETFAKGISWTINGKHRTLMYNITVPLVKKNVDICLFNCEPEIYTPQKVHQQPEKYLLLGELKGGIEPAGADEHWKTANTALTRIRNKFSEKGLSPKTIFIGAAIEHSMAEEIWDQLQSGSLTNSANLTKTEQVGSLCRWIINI
Experimental: as §1, §2

[5] = biological target: T5, BsoBI restriction endonuclease (UniProt P70985 P70985:1-323); assay: filter; 4 mM CaCl2, 100 mM NaCl, pH 7.5, room temp; ±2.0; conditions: tags: untagged, expressed from pRRS-bsoBIR in E. coli ER2683; chain copies: 2 inferred; label: 33P 5' end
T5 sequence: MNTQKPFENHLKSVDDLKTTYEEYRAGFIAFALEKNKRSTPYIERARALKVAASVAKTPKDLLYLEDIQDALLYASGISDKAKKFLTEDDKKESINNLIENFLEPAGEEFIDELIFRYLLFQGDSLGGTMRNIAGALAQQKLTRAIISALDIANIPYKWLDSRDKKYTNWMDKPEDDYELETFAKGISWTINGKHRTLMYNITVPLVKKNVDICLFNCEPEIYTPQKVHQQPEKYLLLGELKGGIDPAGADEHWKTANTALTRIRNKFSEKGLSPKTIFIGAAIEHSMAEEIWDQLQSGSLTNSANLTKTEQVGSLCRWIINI
Experimental: as §1, §2

BsoBI D246C [6] = biological target: T6, BsoBI D246C (UniProt P70985 P70985:1-323, D246C); assay: filter; 4 mM CaCl2; ±11; conditions: chain copies: 2 inferred; label: 33P 5' end
T6 sequence: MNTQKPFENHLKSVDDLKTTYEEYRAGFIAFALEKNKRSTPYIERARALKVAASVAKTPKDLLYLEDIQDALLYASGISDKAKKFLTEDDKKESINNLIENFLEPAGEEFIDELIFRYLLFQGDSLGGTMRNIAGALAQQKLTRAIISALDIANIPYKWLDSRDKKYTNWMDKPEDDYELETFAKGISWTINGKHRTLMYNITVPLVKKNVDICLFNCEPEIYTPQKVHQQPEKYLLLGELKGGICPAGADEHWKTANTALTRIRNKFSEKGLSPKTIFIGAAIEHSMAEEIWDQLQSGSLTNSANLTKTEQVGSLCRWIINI
Experimental: as §1, §2

[7] = biological target: T5, BsoBI restriction endonuclease; assay: filter; 4 mM CaCl2, 100 mM NaCl, pH 7.5, room temp; ±1.2; conditions: tags: untagged, expressed from pRRS-bsoBIR in E. coli ER2683; chain copies: 2 inferred; label: 33P 5' end
Experimental: as §1, §2

BsoBI D246C [8] = biological target: T6, BsoBI D246C; assay: filter; 4 mM CaCl2; ±4; conditions: chain copies: 2 inferred; label: 33P 5' end
Experimental: as §1
(§3) DNA binding properties of BsoBI endonuclease and variants: To obtain reproducible BsoBI:DNA binding data, a filter binding assay utilizing a microcentrifuge filter was developed. In the control experiment, more than 99% of the wt BsoBI endonuclease was retained on the filter of the spin column. When labeled duplex DNA was loaded onto the membrane in the absence of protein, more than 95% of the DNA passed through the column. […] The heat-treatment step removed approximately 80% of E. coli proteins. The filter-binding assay was performed for wt BsoBI endonuclease and variants D246A, D246C, D246E, D246R, and D246Y in the presence of Ca⁺⁺. The inclusion of Ca⁺⁺ in the binding buffer stabilizes the protein:DNA complex in DNA mobility shift assays (data not shown) and it was presumed that Ca⁺⁺ does the same in the filter binding assay.

BsoBI D246Y [9] = biological target: T3, BsoBI D246Y; assay: filter; 4 mM CaCl2; ±2; conditions: chain copies: 2 inferred; label: 33P 5' end
Experimental: as §1, §2

BsoBI D246A [10] = biological target: T1, BsoBI D246A; assay: filter; 4 mM CaCl2; ±0.6; conditions: chain copies: 2 inferred; label: 33P 5' end
Experimental: as §1, §2

BsoBI D246E [11] = biological target: T4, BsoBI D246E; assay: filter; 4 mM CaCl2; ±683; conditions: chain copies: 2 inferred; label: 33P 5' end
Experimental: as §1, §2

BsoBI D246R [12] = biological target: T2, BsoBI D246R; assay: filter; 4 mM CaCl2; ±3.5; conditions: chain copies: 2 inferred; label: 33P 5' end
Experimental: as §1, §2

[13] = biological target: T5, BsoBI restriction endonuclease; assay: filter; 4 mM CaCl2, 100 mM NaCl, pH 7.5, room temp; ±0.9; conditions: tags: untagged, expressed from pRRS-bsoBIR in E. coli ER2683; chain copies: 2 inferred; label: 33P 5' end
Experimental: as §1, §2

BsoBI D246C [14] = biological target: T6, BsoBI D246C; assay: filter; 4 mM CaCl2; ±9.8; conditions: chain copies: 2 inferred; label: 33P 5' end
Experimental: as §1, §2

BsoBI D246R [15] = biological target: T2, BsoBI D246R; assay: filter; 4 mM CaCl2; ±4.6; conditions: chain copies: 2 inferred; label: 33P 5' end
Experimental: as §1, §2

BsoBI D246A [16] = biological target: T1, BsoBI D246A; assay: filter; 4 mM CaCl2; ±4; conditions: chain copies: 2 inferred; label: 33P 5' end
Experimental: as §1, §3

BsoBI D246Y [17] = biological target: T3, BsoBI D246Y; assay: filter; 4 mM CaCl2; ±4; conditions: chain copies: 2 inferred; label: 33P 5' end
Experimental: as §1, §3

BsoBI D246E [18] = biological target: T4, BsoBI D246E; assay: filter; 4 mM CaCl2; ±1578; conditions: chain copies: 2 inferred; label: 33P 5' end
Experimental: as §1, §2

BsoBI D246C [19] = biological target: T6, BsoBI D246C; assay: filter; 4 mM CaCl2; ±10; conditions: chain copies: 2 inferred; label: 33P 5' end
Experimental: as §1, §2

BsoBI D246Y [20] = biological target: T3, BsoBI D246Y; assay: filter; 4 mM CaCl2; ±67; conditions: chain copies: 2 inferred; label: 33P 5' end
Experimental: as §1, §2

BsoBI D246R [21] = biological target: T2, BsoBI D246R; assay: filter; 4 mM CaCl2; ±4.9; increased non-specific binding; conditions: chain copies: 2 inferred; label: 33P 5' end
Experimental: as §1, §2

[22] = biological target: T5, BsoBI restriction endonuclease; assay: filter; 4 mM CaCl2, non-specific control; ±143; conditions: tags: untagged, expressed from pRRS-bsoBIR in E. coli ER2683; chain copies: 2 inferred; label: 33P 5' end
Experimental: as §1, §2

BsoBI D246E [23] = biological target: T4, BsoBI D246E; assay: filter; 4 mM CaCl2; ±3347; conditions: chain copies: 2 inferred; label: 33P 5' end
Experimental: as §1, §2

BsoBI D246A [24] = biological target: T1, BsoBI D246A; assay: filter; 4 mM CaCl2; ±97; conditions: chain copies: 2 inferred; label: 33P 5' end
Experimental: as §1, §2

B1: S1 (CTCGAG) (dsDNA)
DNA 1: GAGTGTTATGGGTAGCTCGAGTGAAGTGGGAATATC
DNA 2: GATATTCCCACTTCACTCGAGCTACCCATAACACTC
For B1, the Kd (BsoBI D246A [1]) was 0.219 nM, the Kd (BsoBI D246R [2]) was 0.089 nM and the Kd (BsoBI D246Y [3]) was 0.132 nM. The Kd (BsoBI D246E [4]) was 80 nM, the Kd [5] was 0.0092 nM and the Kd (BsoBI D246C [6]) was 0.074 nM.

B2: S2 (CCCGGG) (dsDNA)
DNA 1: GAGTGTTATGGGTAGCCCGGGTGAAGTGGGAATATC
DNA 2: GATATTCCCACTTCACCCGGGCTACCCATAACACTC
Binder B2 has a Kd [7] of 0.0066 nM, a Kd (BsoBI D246C [8]) of 0.03 nM and a Kd (BsoBI D246Y [9]) of 0.041 nM. The Kd (BsoBI D246A [10]) was 0.0031 nM, the Kd (BsoBI D246E [11]) was 2.84 nM and the Kd (BsoBI D246R [12]) was 0.038 nM.

B3: S3 (CTCGGG/CCCGAG) (dsDNA)
DNA 1: GAGTGTTATGGGTAGCTCGGGTGAAGTGGGAATATC
DNA 2: GATATTCCCACTTCACCCGAGCTACCCATAACACTC
With B3 the Kd [13] was 0.0053 nM, the Kd (BsoBI D246C [14]) was 0.064 nM and the Kd (BsoBI D246R [15]) was 0.039 nM. It also gave a Kd (BsoBI D246A [16]) of 0.017 nM, a Kd (BsoBI D246Y [17]) of 0.057 nM and a Kd (BsoBI D246E [18]) of 42.1 nM.

B4: N (CATAAC, non-specific) (dsDNA)
DNA 1: GAGTGTTATGGGTAGCATAACTGAAGTGGGAATATC
DNA 2: GATATTCCCACTTCAGTTATGCTACCCATAACACTC
Binder B4 has a Kd (BsoBI D246C [19]) of 0.142 nM, a Kd (BsoBI D246Y [20]) of 0.449 nM and a Kd (BsoBI D246R [21]) of 0.064 nM. The Kd [22] was 1.45 nM, the Kd (BsoBI D246E [23]) was 93.2 nM and the Kd (BsoBI D246A [24]) was 0.578 nM.
